According to the DeepSol protein solubility set:

Assay: soluble on expression in E. coli; label from the status in PepcDB or PDB records

Q: With “MRASRKRLHTTNLRWNMSQKHWSKVQLLHEVVKNPNIIIKGKHSYYSDCWDAGFEASVVRYLHGDEISQRWDPLWEIDQLVIGDYVCIGAEVVILMGGNHTHRADWFCLYPFMDVIEQAYVGKGNTEIGDGAWLGMRAMIMPGVKIGEGAIVAANSVVTKDVAPYSIVAGSPAQLVKYRFDAKVIDELLALKVYDWPPEKFTALKSYLCALDLAALKQAVIQYDAEPHNPLS” as the sequence, how does the “soluble on expression in E. coli” value read?
A: Its value is “not soluble”.

Q: With “MRCMSDDHTHVQEFFEARAADWDSRFPDDGPAHAAAVAELGLREGDRVLDAGCGTGRALPSLRAAVGSSGVVVGVDLTPAMLAAAARAGRGRDGHLLLADVTRLPLGTESLDAVFAAGLIAHLPEPAENLRELARVVRAGGTLALFHPIGRAALAARQGRQITPDDLRAEANLGPLLAGSGWRMTSYVDEDARFLALAVRVKLEHHHHHH” as the sequence, how does the “soluble on expression in E. coli” value read?
A: Its value is “not soluble”.

Q: Which “soluble on expression in E. coli” value does the source give for “MRDALLGALDAGAVCVNVDLAHAGQQAKLEPDTPYGDALGVGAGRNWAHVNSIAYDAKDDSIILSSRHQGIVKIGRDKQVKWILAPSKGWNKQLASKLLKPVDDHGKPLTCDENGKCKDTDFDFTYTQHTAWLSSKGTLTVFDNGDGRGLEQPALPTMKYSRFVEYKIDEKKGTVQQVWEYGKERGYDFYSPITSVVEYQKDRDTMFGFGGSINLFDVGKPTVGKLNEIDYKTKEVKVEIDVLSDKPNQTHYRALLVHPTQMFKLEHHHHHH” here?
A: Its value is “soluble”.

Q: Which “soluble on expression in E. coli” value does the source give for “MRDAQRPDLSTTFTVLLAGGRGSRLHELTSRECKPALPFAGPRRIVDFTLANAARSGLTRMIVATQYRPETLAHHLESRWASRFAGGSLRLREGTAVTGSPQGYGGTAAAVAANLAELQSEGVRELVVLAADHVYEMDYADMVAAHRASGASATVAVDTVPTDRASEFGVVRTSEGGRIESFLEKPAVVPADPAIPGRAQVSMGIYVFDLDWLASVLRIIPGATQDFGHDILPLAVALGEAHAYRVPGDNFYWRDVGTLDAYRLAQLEFQTGEAPCALPPRIAASEHEMKAATGELIQFAFRMQTGGIALHSPRLGGDLPGRWTMLDESVLLPGARVAPGVRLTRTIVAPGTSVPAGLVIGEDPDEDARWFRRTEEGTVLVTTPMLARRAADRGRLVAPFADSRMGRSALEHHHHHH” here?
A: Its value is “not soluble”.

Q: Which “soluble on expression in E. coli” value does the source give for “MRDFGEILAENRKKKGYSQSDLVNLLSQEGIQVTTKALSKWENNAREPALHVFLTLCQLLDIEDIYESFFGENPYNIMSGLNEEGRNKLIEFADILKASKKFSPLSAKIIPFHHPVEITWEPVSAGTGNYLEDSVKETYDVGHLAPEQTDFGVRISGDSMEPLYHTDDVAWIQKKDSLANGEIGIFYLNGNTYIKELHDEPDGVYLISLNQKYRPIQVLESDSFKIFGKVIGKCKGAEIPGFHLEHHHHHH” here?
A: The value was “soluble”.

Q: Which “soluble on expression in E. coli” value does the source give for “MRDLFDEVAGKSPLDPNEAVRRTSRAQLPKRFYTEAGVAEENGGFAVRLDGRAVKTPSRNALAAPDRALAEAIAAEWQAQGETIDPSTMPLTRLANSVIDGVAGRVEAVTDDIAKYFGSDLLFYRAEHPEELIAREGAHWDPVLFWAKDALGAHFILAQGIVHVGQPETALAAARAALPADPWLLGALHVVTTITGSALLALALAHGRLEADQVWAAAHVDEDWNIEQWGLDEEAAARRAAKQAEFAAAAQVIAALGSRRSAAALEHHHHHH” here?
A: The value was “not soluble”.

Q: For “MRDPLCDESYLLKTIESNRKFISKRKEKIIGLKADIENGIQRYPRDNQSIIYITFSQMFMYGMNMLLAKYSLGNHPDTMIDDYLDNITYLENCGEEEAGYINLLWMVGLGILLEMDKEVLKRLARVIERQRIEDALMDFLLKACDIGWNHSTTKYEKKNPYEKTVEIIKIALHDKDKEAASKRLEKYMEKEWFKGHYDFGWRNAHKEPGYYGFWSFDTAALAKILGLDDSALKDNNHYPYDLAHYKNGMTFDLSWYSEPREEEVREETVVYGIPGNPLLERIIPGRFHSFVNEIINDYKTLPDEEFWKKYNLKEIWFDVEEYKEDNKDKNLLGTIIVFMLVDKDYILQLDYKEELIDYIENIHNYWPKEEVKLISFELDNDQQYYAYVPKDAEAGSLYEVKVTEVEKIEEV”, which “soluble on expression in E. coli” value is on record?
A: Its value is “not soluble”.

Q: With “MRDTMEILRTENIVKYFGEFKALDGVSISVNKGDVTLIIGPNGSGKSTLINVITGFLKADEGRVYFENKDITNKEPAELYHYGIVRTFQTPQPLKEMTVLENLLIGEINPGESPLNSLFYKKWIPKEEEMVEKAFKILEFLKLSHLYDRKAGELSGGQMKLVEIGRALMTNPKMIVMDQPIAGVAPGLAHDIFNHVLELKAKGITFLIIEHRLDIVLNYIDHLYVMFNGQIIAEGRGEEEIKNVLSDPKVVEIYIGE” as the sequence, how does the “soluble on expression in E. coli” value read?
A: Its value is “soluble”.

Q: Which “soluble on expression in E. coli” value does the source give for “MREIPLVSVALATYNGERYLRRQLDSVLAQTYRNIEIVVSDDCSRDGTVAILEEYRRAHGITFRVNERNLGFVRNFERALAGCRGEFIALSDQDDIWLPEKIETLVREIGPHSLIYTDALLIDGDDQPLPGSLVEVSGVRPVSGTCFEYFVCNNCVTGCTAMLRRDLLATALPIPEAETYHDWWLAVAASRRNGVVYHAAKLTEYRQHAHNYTGANVRAGLPARIAAHLMGKTAAEKRGYYELLANRARRYRAMADRLNLTPAERSFLEEIGEYAESLLSGGNRMKTFALALKYRETLFPAAGRWEKLLFVFSKLIAARAILEHHHHHH” here?
A: The value was “soluble”.

Q: With “MRESHNVLPPVAPVRPITRTHHGIDFVDNYEWLRDKENPETIQYLEAENAFVEQQTAHLSQLKDNIYHEIKSRVKETDMSVPQRAGDFWYYGRSVEGKSYGYSCRIPVSEGADAWVPPTIPEREPVAGEQIILDANELAEGHEFFALGASTVTTSGRYLAYSVDTEGDERFTLRVKDLATGEHLADEIPDVFYGATWAGEEYLFYQRVDAAWRPDSVWRHKIGTDPATDVQVFHEADERFNTGVGATRSERFLMIESASKITSEIWVLDLDNPTGDFRCVLPRQAGVEYDIDHAVVAGRDTWIVTHNAAGPNFEVGWTPVTDEEISLDSLEVLVPHRDEVRIEGVDTYRDHIVLAYRSGAIGRAAVMQLNADGFGTFEEITFDEELYTIGVGGHPEWDTPVVRMVYVSFTQPSQVFDYWIADGRRTLLKQQEVVGGYNADDYTASRLWVEAHDGVRIPVSLIHRSDLDLSKPNPTLLYGYGSYESSIDPGFSIARLSLMDRGMVFAIAHVRGGGEMGRGWYDTGKTVTKKNTFTDFIAVADHLIEHGVTTSEMLVAEGGSAGGMLMGAVANMAGDRFKAIEAVVPFVDPLTSMLMPELPLTVTEWDEWGDPLHDVDVYNYMASYAPYENIEAKAYPNILAVTSLNDTRVLYVEPAKWIAQLRATATGGQFLLKTEMSAGHGGVSGRYEKWKQTAFEYAWLCHQATGKES” as the sequence, how does the “soluble on expression in E. coli” value read?
A: The value was “not soluble”.

Q: For “MREYKVVVLGSGGVGKSALTVQFVTGSFIEKYDPTIEDFYRKEIEVDSSPSVLEILDTAGTEQFASMRDLYIKNGQGFILVYSLVNQQSFQDIKPMRDQIIRVKRYERVPMILVGNKVDLEGEREVSYGEGKALAEEWSCPFMETSAKNKASVDELFAEIVRQMNYAAQPNGDEGCCSACVIL”, which “soluble on expression in E. coli” value is on record?
A: Its value is “soluble”.

Q: For “MRFFSLIKLPVVLVLAGLLSACGFHLRGEYSVPEELHTMSFSSYDEYSKLTRYVRSQLQLNKVDLVQPSSSVPNLHLIKATMDERTLSLYQNSRAAEKELTYVVQYRVTIPGFGSKNFTTTVNRNYLDNPLTALAKSVERDVIEDEMRQQAAKQMMRQLGRIRAEYEAGQIAAPTEKTNSLEHHHHHH”, which “soluble on expression in E. coli” value is on record?
A: Its value is “not soluble”.

Q: With “MRFKVSKLMAYILRHSPWEFGLEPDEEGFVSIEELVNAVRKVYPWVTEEYIREIVERDEKGRYEIRGNKIRARYGHSYPVILRHEEDKESKVLYHGTVRRNLKGIMREGIKPMKRQYVHLSINYEDAYNTGRRHGEDVVVLIIDAECLRNKGYKILKAGKKVRIVKHVPVDCISGILLEHHHHHH” as the sequence, how does the “soluble on expression in E. coli” value read?
A: Its value is “not soluble”.

Q: With “MRGFSGQPLSDDDNYRIEKTQRNTIPERLHFSRERNMPIASIFGTRGYFVFSSEQSYDKFKQTNFNISTLDADGVGVPLFHIVQSYNVIGKITRSSPDFYIYKYVLQGVQDPPLYSDCKVICQDKVFRLCKILYCEIYAHQGFFETKYDFFYPSKTQPVKKYQIIKQSNMRDLYSTLDGMRFRWHVKFYSDHFRLMFLDEDRLNYSNSNQKERQKPDQGKSKAPDFVIGHYTRTFSDILPRSTSKCSNLIIGEHSKPDSLGITTVPDLTQEFACQGALIHYLLHIERERK” as the sequence, how does the “soluble on expression in E. coli” value read?
A: Its value is “soluble”.

Q: Which “soluble on expression in E. coli” value does the source give for “MRGHHHHHHHGSMTIEFVGVEKIYPGGARSVRGVSFQIREGEMVGLLGPSGSGKTTILRLIAGLERPTKGDVWIGGKRVTDLPPQKRNVGLVFQNYALFQHMTVYDNVSFGLREKRVPKDEMDARVRELLRFMRLESYANRFPHELSGGQQQRVALARALAPRPQVLLFDEPFAAIDTQIRRELRTFVRQVHDEMGVTSVFVTHDQEEALEVADRVLVLHEGNVEQFGTPEEVYEKPGTLFVASFIGESNVWTRAVQNGRIEVAGAALPVDPAVSEGSEVAVVVRPKDVELQPASEREAHAQVVRSAFKGSYSACWIRTKDGEVWEVHVPSADRHRWSPGAWVHMNVTRWFIFPR” here?
A: The value was “soluble”.

Q: For “MRGMAANQGERIRRRLSTGERREQLLSVGARLFSESPYDEVWIEQVAEIAGVSRGLLYHYFPNKRDFFAAVVERESERMLRMTAAVPGVPVREQLTAGLDAYLEYVRAHAHGYRAFHRADAAGDRAVRRVYQKALAAQERQILAALAADPEFGPAFEERGDVRLAVRGWLAFTTAVCLEWLRDPEPAREQVRDLCARALLGAVAP”, which “soluble on expression in E. coli” value is on record?
A: The value was “not soluble”.

Q: For “MRGSAFNGKWETESQEGYEPFCKLIGIPDDVIAKGRDFKLVTEIVQNGDDFTWTQYYPNNHVVTNKFIVGKESDMETVGGKKFKGIVSMEGGKLTISFPKYQQTTEISGGKLVETSTASGAQGTAVLVRTSKKVLVPR”, which “soluble on expression in E. coli” value is on record?
A: The value was “soluble”.

Q: For “MRGSHHHHHHGMASMTGGQQMGRDLYDDDDKDHPFTEGRSWPSAPDDSKAQAHRIHIDPEIQDGSPTTSRRPSGTGTGPEDGRPSLGSPYGKPPCFPVPHNGSSEATLPAQMSTLHVSPPPSADPAEASRGAGSRVDLGSEVYRMLREPAEPVAAEPKQSGSFRYLQGMLEAGEGGD”, which “soluble on expression in E. coli” value is on record?
A: The value was “soluble”.

Q: With “MRGSHHHHHHGSIWEWKEAHFQDAFSSFQAMYAKSYATEEEKQRRYAIFKNNLVYIHTHNQQGYSYSLKMNHFGDLSRDEFRRKYLGFKKSRNLKSHHLGVATELL” as the sequence, how does the “soluble on expression in E. coli” value read?
A: The value was “soluble”.

Q: With “MRGSHHHHHHTDPALRANKVAQYYRELVASLSERLRNGERDIDALVEQARERVIKTGELTRTEVDELTRAVRRDLEEFAMSYEESLKEESDSVFMRVIKESLWQELADITDKTQLEWREVFQDLNHHGVYHSGEVVGLGNLVCEKCHFHLPIYTPEVLTLCPKCGHDQFQRRPFEPGLCGR” as the sequence, how does the “soluble on expression in E. coli” value read?
A: The value was “soluble”.

Q: Which “soluble on expression in E. coli” value does the source give for “MRGSHHHHHHTDPALRANSLFASTARGLEELLKTELENLGAVECQVVQGGVHFKGDTRLVYQSLMWSRLASRIMLPLGECKVYSDLDLYLGVQAINWTEMFNPGATFAVHFSGLNDTIRNSQYGAMKVKDAIVDAFTRKNLPRPNVDRDAPDIRVNVWLHKETASIALDLSGDGLHLRGYRDRAGIAPIKETLAAAIVMRSGWQPGTPLLDPMCGSGTLLIEAAMLATDRAPGLHRGRWGFSGWAQHDEAIWQEVKAEAQTRARKGLAEYSSHFYGSDSDARVIQRARTNARLAGIGELITFEVKDVAQLTNPLPKGPYGTVLSNPPYGERLDSEPALIALHSLLGRIMKNQFGGWNLSLFSASPDLLSCLQLRADKQYKAKNGPLDCVQKNYHVAESTPDSKPAMVAEDYTNRLRKNLKKFEKWARQEGIECYRLYDADLPEYNVAVDRYADWVVVQEYAPPKTIDAHKARQRLFDIIAATISVLGIAPNKLVLKTRERQKGKNQYQKLGEKGEFLEVTEYNAHLWVNLTDYLDTGLFLDHRIARRMLGQMSKGKDFLNLFSYTGSATVHAGLGGARSTTTVDMSRTYLEWAERNLRLNGLTGRAHRLIQADCLAWLREANEQFDLIFIDPPTFSNSKRMEDAFDVQRDHLALMKDLKRLLRAGGTIMFSNNKRGFRMDLDGLAKLGLKAQEITQKTLSQDFARNRQIHNCWLITAAGLCGR” here?
A: Its value is “soluble”.
